From patent US20100120024
pKd: −log10 of the molar value. Where two headings read alike, the source gives them in different places.

How the values were obtained:
IgE (Homo sapiens) = assay: filter; settings: 2'-OMe A,G,U; 2'-deoxy C; pool; DPBS with Ca2+ and Mg2+
[1] = biological target: von Willebrand factor (vWF) (Homo sapiens) (UniProt P04275); assay: filter; settings: 2'-OMe A,G,U; 2'-deoxy C; pool; DPBS with Ca2+ and Mg2+
[2] = biological target: von Willebrand factor A1 domain (Homo sapiens) (UniProt P04275); assay: filter; settings: 2'-OMe A,G,U; 2'-deoxy C; pool; DPBS with Ca2+ and Mg2+
[3] = biological target: T7 RNA polymerase Y639L/H784A/K378R (Bacteriophage T7) (UniProt P00573); settings: MNA yield, 8 mM MgCl2, 2.5 mM MnCl2
[4] = biological target: T7 RNA polymerase P266L/Y639L/H784A/K378R (Bacteriophage T7) (UniProt P00573); settings: 11 ug/ml enzyme (65 at 2.6, 13 at 0.66, 8.3 at 0.16 ug/ml); 8 mM MgCl2, 2.5 mM MnCl2
[5] = biological target: T7 RNA polymerase Y639L/H784A/K378R (Bacteriophage T7) (UniProt P00573); settings: 2.1 ug/ml enzyme; 2'-OMe NTPs, 8 mM MgCl2, 2.5 mM MnCl2, 37 C

“GGGAGAATTCCGACCACAAGNNNNNNNNNNNNNNNNNNNNNNNNNNNNNNNNNNNNNNNNCATATGTGCGTCTACATGGATCCTCA [ARC4218 dCmD round 6 pool, IgE selection]” was tested, and the pKd (IgE (Homo sapiens)) was 8.10.
In the case of “GGGAGAATTCCGACCACAAGNNNNNNNNNNNNNNNNNNNNNNNNNNNNNNNNNNNNNNNNCATATGTGCGTCTACATGGATCCTCA [ARC4218 dCmD round 6 pool, vWF selection]”, the pKd [1] was 8.70 and the pKd [2] was 8.40.
Sequence “GGGAGAATTCCGACCAGAAGCTTNNNNNNNNNNNNNNNNNNNNNNNNNNNNNNNNNNNNNNNNCATATGTGCGTCTACATGGATCCTCA (double strand)” has an activity ([3]; dCmD yield 365 pmol) of 473 pmol.
Sequence “GGGAGAGACAAGCTTGGGTCNNNNNNNNNNNNNNNNNNNNNNNNNNNNNNNNNNNNNNNNAGAAGAGAAAGAGAAGTTAATTAAGGATCCTCAG (double strand)” has an activity ([3]; dCmD yield 327 pmol) of 404 pmol.
“TAATACGACTCACTATAGGGGAGTACAATAACGTTCTCGNNNNNNNNNNNNNNNNNNNNNNNNNNNNNNGGATCGTTACGACTAGCATCGATG (double strand) [ARC2118 transcription template]” showed an activity (normalized MNA transcript yield) [4] of 130 and an activity (normalized MNA transcript yield) [5] of 100.
